Assay results published in US20100047163A1.

Assays:
[1] = molecular target: LDL receptor (LDLR) on human glioblastoma multiforme cells (human) (UniProt P01130); assay: ^125I-LDL saturation binding to SF-763 cells
[2] = molecular target: LDL receptor (LDLR) on human glioblastoma multiforme cells (human) (UniProt P01130); assay: ^125I-LDL saturation binding to SF-767 cells
[3] = molecular target: LDL receptor (LDLR) on human glioblastoma multiforme cells (human) (UniProt P01130); assay: ^125I-LDL saturation binding to U-251 MG cells (average of 2 experiments)
[4] = molecular target: LDL receptor (LDLR) on human glioblastoma multiforme cells (human) (UniProt P01130); assay: ^125I-LDL saturation binding to A-172 cells
[5] = molecular target: LDL receptor (LDLR) on human glioblastoma multiforme cells (human) (UniProt P01130); assay: ^125I-LDL saturation binding to SF-539 cells
[6] = molecular target: LDL receptor (LDLR) on human glioblastoma multiforme cells (human) (UniProt P01130); assay: ^125I-LDL saturation binding to U-343 MG cells

Bmax (ng/mg cell protein) [1]: 900
Bmax (ng/mg cell protein) [2]: 793
Bmax (ng/mg cell protein) [3]: 225
Bmax (ng/mg cell protein) [4]: 1400
Bmax (ng/mg cell protein) [5]: 310
Bmax (ng/mg cell protein) [6]: 510
Substance: native plasma LDL (low density lipoprotein; LDLR ligand apoB100 on its surface), P04114 28-4563
